Results from patent publication US20160272683A1 (Novo Nordisk, published 2016).
Numbered stars: 1 amine (or outer) side, 2 acyl side, 3 side chain; on linkers, the order of the positions; unused ones are H or OH. * marks the point of attachment. C20 diacid = O=C(O)CCCCCCCCCCCCCCCCCCC(=O)*; C18 diacid = O=C(O)CCCCCCCCCCCCCCCCC(=O)*; γGlu = O=C(O)[C@H](CCC(=O)[*:2])N[*:1]

T1: human amylin 3(a) receptor (human calcitonin receptor co-expressed with RAMP-3) on BHK570/CRE-luc cells (human, UniProt P30988 25-474; O60896 24-148)
T1 sequence (looked up) 1: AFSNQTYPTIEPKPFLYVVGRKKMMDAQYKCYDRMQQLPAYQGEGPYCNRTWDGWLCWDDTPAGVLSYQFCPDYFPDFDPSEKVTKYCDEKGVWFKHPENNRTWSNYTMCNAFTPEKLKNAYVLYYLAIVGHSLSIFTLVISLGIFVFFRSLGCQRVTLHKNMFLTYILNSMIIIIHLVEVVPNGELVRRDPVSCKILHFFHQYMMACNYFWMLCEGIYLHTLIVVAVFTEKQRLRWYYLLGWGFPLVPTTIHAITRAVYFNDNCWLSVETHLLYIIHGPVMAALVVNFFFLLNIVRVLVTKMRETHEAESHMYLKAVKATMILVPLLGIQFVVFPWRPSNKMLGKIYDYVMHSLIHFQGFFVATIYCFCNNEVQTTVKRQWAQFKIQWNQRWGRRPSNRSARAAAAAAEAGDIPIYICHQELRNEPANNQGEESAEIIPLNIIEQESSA
T1 sequence (looked up) 2: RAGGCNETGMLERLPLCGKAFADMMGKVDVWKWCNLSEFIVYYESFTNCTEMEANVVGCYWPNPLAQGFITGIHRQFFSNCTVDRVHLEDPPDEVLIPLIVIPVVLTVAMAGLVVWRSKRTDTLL

T2: human calcitonin receptor on BHK570/CRE-luc cells (human, UniProt P30988 25-474)
T2 sequence (looked up): T1 sequence (looked up) 1

B1: [N-terminal(C20 diacid-gGlu), des1, 12K, 23Y, 25K, 30S, 31G, 33Y]mimylin (peptide)
peptide: {C20 diacid-γGlu}-ASELSTAALGKLSAELHELATYPKTETGSGSY-NH2
SMILES: CC(C)C[C@H](NC(=O)[C@H](C)NC(=O)[C@H](C)NC(=O)[C@@H](NC(=O)[C@H](CO)NC(=O)[C@H](CC(C)C)NC(=O)[C@H](CCC(=O)O)NC(=O)[C@H](CO)NC(=O)[C@H](C)NC(=O)CC[C@H](NC(=O)CCCCCCCCCCCCCCCCCCC(=O)O)C(=O)O)[C@@H](C)O)C(=O)NCC(=O)N[C@@H](CCCCN)C(=O)N[C@@H](CC(C)C)C(=O)N[C@@H](CO)C(=O)N[C@@H](C)C(=O)N[C@@H](CCC(=O)O)C(=O)N[C@@H](CC(C)C)C(=O)N[C@@H](Cc1c[nH]cn1)C(=O)N[C@@H](CCC(=O)O)C(=O)N[C@@H](CC(C)C)C(=O)N[C@@H](C)C(=O)N[C@H](C(=O)N[C@@H](Cc1ccc(O)cc1)C(=O)N1CCC[C@H]1C(=O)N[C@@H](CCCCN)C(=O)N[C@H](C(=O)N[C@@H](CCC(=O)O)C(=O)N[C@H](C(=O)NCC(=O)N[C@@H](CO)C(=O)NCC(=O)N[C@@H](CO)C(=O)N[C@@H](Cc1ccc(O)cc1)C(N)=O)[C@@H](C)O)[C@@H](C)O)[C@@H](C)O
B2: [N-terminal(C20 diacid-gGlu), 4G, 15Q, 21Q, 23Y, 30S, 31G, 32T, 33Y]mimylin (peptide)
peptide: {C20 diacid-γGlu}-EASGLSTAALGRLSQELHELQTYPRTETGSGTY-NH2
SMILES: CC(C)C[C@H](NC(=O)CNC(=O)[C@H](CO)NC(=O)[C@H](C)NC(=O)[C@H](CCC(=O)O)NC(=O)CC[C@H](NC(=O)CCCCCCCCCCCCCCCCCCC(=O)O)C(=O)O)C(=O)N[C@@H](CO)C(=O)N[C@H](C(=O)N[C@@H](C)C(=O)N[C@@H](C)C(=O)N[C@@H](CC(C)C)C(=O)NCC(=O)N[C@@H](CCCNC(=N)N)C(=O)N[C@@H](CC(C)C)C(=O)N[C@@H](CO)C(=O)N[C@@H](CCC(N)=O)C(=O)N[C@@H](CCC(=O)O)C(=O)N[C@@H](CC(C)C)C(=O)N[C@@H](Cc1c[nH]cn1)C(=O)N[C@@H](CCC(=O)O)C(=O)N[C@@H](CC(C)C)C(=O)N[C@@H](CCC(N)=O)C(=O)N[C@H](C(=O)N[C@@H](Cc1ccc(O)cc1)C(=O)N1CCC[C@H]1C(=O)N[C@@H](CCCNC(=N)N)C(=O)N[C@H](C(=O)N[C@@H](CCC(=O)O)C(=O)N[C@H](C(=O)NCC(=O)N[C@@H](CO)C(=O)NCC(=O)N[C@H](C(=O)N[C@@H](Cc1ccc(O)cc1)C(N)=O)[C@@H](C)O)[C@@H](C)O)[C@@H](C)O)[C@@H](C)O)[C@@H](C)O
B3: [N-terminal(C20 diacid-gGlu), des1, 9S, 21S, 23Y, 30S, 31G, 33Y]mimylin (peptide)
peptide: {C20 diacid-γGlu}-ASELSTASLGRLSAELHELSTYPRTETGSGSY-NH2
SMILES: CC(C)C[C@H](NC(=O)[C@H](CO)NC(=O)[C@H](C)NC(=O)[C@@H](NC(=O)[C@H](CO)NC(=O)[C@H](CC(C)C)NC(=O)[C@H](CCC(=O)O)NC(=O)[C@H](CO)NC(=O)[C@H](C)NC(=O)CC[C@H](NC(=O)CCCCCCCCCCCCCCCCCCC(=O)O)C(=O)O)[C@@H](C)O)C(=O)NCC(=O)N[C@@H](CCCNC(=N)N)C(=O)N[C@@H](CC(C)C)C(=O)N[C@@H](CO)C(=O)N[C@@H](C)C(=O)N[C@@H](CCC(=O)O)C(=O)N[C@@H](CC(C)C)C(=O)N[C@@H](Cc1c[nH]cn1)C(=O)N[C@@H](CCC(=O)O)C(=O)N[C@@H](CC(C)C)C(=O)N[C@@H](CO)C(=O)N[C@H](C(=O)N[C@@H](Cc1ccc(O)cc1)C(=O)N1CCC[C@H]1C(=O)N[C@@H](CCCNC(=N)N)C(=O)N[C@H](C(=O)N[C@@H](CCC(=O)O)C(=O)N[C@H](C(=O)NCC(=O)N[C@@H](CO)C(=O)NCC(=O)N[C@@H](CO)C(=O)N[C@@H](Cc1ccc(O)cc1)C(N)=O)[C@@H](C)O)[C@@H](C)O)[C@@H](C)O
B4: [N-terminal(C18 diacid-gGlu), des1, 5V, 9V, 10V, 20V, 30S, 31G]mimylin (peptide)
peptide: {C18 diacid-γGlu}-ASEVSTAVVGRLSAELHEVATLPRTETGSGSP-NH2
SMILES: CC(C)C[C@H](NC(=O)[C@H](CCCNC(=N)N)NC(=O)CNC(=O)[C@@H](NC(=O)[C@@H](NC(=O)[C@H](C)NC(=O)[C@@H](NC(=O)[C@H](CO)NC(=O)[C@@H](NC(=O)[C@H](CCC(=O)O)NC(=O)[C@H](CO)NC(=O)[C@H](C)NC(=O)CC[C@H](NC(=O)CCCCCCCCCCCCCCCCC(=O)O)C(=O)O)C(C)C)[C@@H](C)O)C(C)C)C(C)C)C(=O)N[C@@H](CO)C(=O)N[C@@H](C)C(=O)N[C@@H](CCC(=O)O)C(=O)N[C@@H](CC(C)C)C(=O)N[C@@H](Cc1c[nH]cn1)C(=O)N[C@@H](CCC(=O)O)C(=O)N[C@H](C(=O)N[C@@H](C)C(=O)N[C@H](C(=O)N[C@@H](CC(C)C)C(=O)N1CCC[C@H]1C(=O)N[C@@H](CCCNC(=N)N)C(=O)N[C@H](C(=O)N[C@@H](CCC(=O)O)C(=O)N[C@H](C(=O)NCC(=O)N[C@@H](CO)C(=O)NCC(=O)N[C@@H](CO)C(=O)N1CCC[C@H]1C(N)=O)[C@@H](C)O)[C@@H](C)O)[C@@H](C)O)C(C)C
B5: [N-terminal(C20 diacid-gGlu), des1, 4G, 9V, 23Y, 30S, 31G, 32T, 33Y]mimylin (peptide)
peptide: {C20 diacid-γGlu}-ASGLSTAVLGRLSAELHELATYPRTETGSGTY-NH2
SMILES: CC(C)C[C@H](NC(=O)CNC(=O)[C@H](CO)NC(=O)[C@H](C)NC(=O)CC[C@H](NC(=O)CCCCCCCCCCCCCCCCCCC(=O)O)C(=O)O)C(=O)N[C@@H](CO)C(=O)N[C@H](C(=O)N[C@@H](C)C(=O)N[C@H](C(=O)N[C@@H](CC(C)C)C(=O)NCC(=O)N[C@@H](CCCNC(=N)N)C(=O)N[C@@H](CC(C)C)C(=O)N[C@@H](CO)C(=O)N[C@@H](C)C(=O)N[C@@H](CCC(=O)O)C(=O)N[C@@H](CC(C)C)C(=O)N[C@@H](Cc1c[nH]cn1)C(=O)N[C@@H](CCC(=O)O)C(=O)N[C@@H](CC(C)C)C(=O)N[C@@H](C)C(=O)N[C@H](C(=O)N[C@@H](Cc1ccc(O)cc1)C(=O)N1CCC[C@H]1C(=O)N[C@@H](CCCNC(=N)N)C(=O)N[C@H](C(=O)N[C@@H](CCC(=O)O)C(=O)N[C@H](C(=O)NCC(=O)N[C@@H](CO)C(=O)NCC(=O)N[C@H](C(=O)N[C@@H](Cc1ccc(O)cc1)C(N)=O)[C@@H](C)O)[C@@H](C)O)[C@@H](C)O)[C@@H](C)O)C(C)C)[C@@H](C)O
B6: [N-terminal(C20 diacid-gGlu), des1, 9T, 21S, 23Y, 30S, 31G, 33Y]mimylin (peptide)
peptide: {C20 diacid-γGlu}-ASELSTATLGRLSAELHELSTYPRTETGSGSY-NH2
SMILES: CC(C)C[C@H](NC(=O)[C@H](CCCNC(=N)N)NC(=O)CNC(=O)[C@H](CC(C)C)NC(=O)[C@@H](NC(=O)[C@H](C)NC(=O)[C@@H](NC(=O)[C@H](CO)NC(=O)[C@H](CC(C)C)NC(=O)[C@H](CCC(=O)O)NC(=O)[C@H](CO)NC(=O)[C@H](C)NC(=O)CC[C@H](NC(=O)CCCCCCCCCCCCCCCCCCC(=O)O)C(=O)O)[C@@H](C)O)[C@@H](C)O)C(=O)N[C@@H](CO)C(=O)N[C@@H](C)C(=O)N[C@@H](CCC(=O)O)C(=O)N[C@@H](CC(C)C)C(=O)N[C@@H](Cc1c[nH]cn1)C(=O)N[C@@H](CCC(=O)O)C(=O)N[C@@H](CC(C)C)C(=O)N[C@@H](CO)C(=O)N[C@H](C(=O)N[C@@H](Cc1ccc(O)cc1)C(=O)N1CCC[C@H]1C(=O)N[C@@H](CCCNC(=N)N)C(=O)N[C@H](C(=O)N[C@@H](CCC(=O)O)C(=O)N[C@H](C(=O)NCC(=O)N[C@@H](CO)C(=O)NCC(=O)N[C@@H](CO)C(=O)N[C@@H](Cc1ccc(O)cc1)C(N)=O)[C@@H](C)O)[C@@H](C)O)[C@@H](C)O
B7: [N-terminal(C18 diacid-gGlu), des1, 6T, 9V, 14T, 21E, 30T, 31G, 32T]mimylin (peptide)
peptide: {C18 diacid-γGlu}-ASELTTAVLGRLTAELHELETLPRTETGTGTP-NH2
SMILES: CC(C)C[C@H](NC(=O)[C@H](CCC(=O)O)NC(=O)[C@H](C)NC(=O)[C@@H](NC(=O)[C@H](CC(C)C)NC(=O)[C@H](CCCNC(=N)N)NC(=O)CNC(=O)[C@H](CC(C)C)NC(=O)[C@@H](NC(=O)[C@H](C)NC(=O)[C@@H](NC(=O)[C@@H](NC(=O)[C@H](CC(C)C)NC(=O)[C@H](CCC(=O)O)NC(=O)[C@H](CO)NC(=O)[C@H](C)NC(=O)CC[C@H](NC(=O)CCCCCCCCCCCCCCCCC(=O)O)C(=O)O)[C@@H](C)O)[C@@H](C)O)C(C)C)[C@@H](C)O)C(=O)N[C@@H](Cc1c[nH]cn1)C(=O)N[C@@H](CCC(=O)O)C(=O)N[C@@H](CC(C)C)C(=O)N[C@@H](CCC(=O)O)C(=O)N[C@H](C(=O)N[C@@H](CC(C)C)C(=O)N1CCC[C@H]1C(=O)N[C@@H](CCCNC(=N)N)C(=O)N[C@H](C(=O)N[C@@H](CCC(=O)O)C(=O)N[C@H](C(=O)NCC(=O)N[C@H](C(=O)NCC(=O)N[C@H](C(=O)N1CCC[C@H]1C(N)=O)[C@@H](C)O)[C@@H](C)O)[C@@H](C)O)[C@@H](C)O)[C@@H](C)O
B8: [N-terminal(C18 diacid-gGlu), des1, 6T, 9V, 14E, 21T, 30T, 31G, 32T]mimylin (peptide)
peptide: {C18 diacid-γGlu}-ASELTTAVLGRLEAELHELTTLPRTETGTGTP-NH2

What follows are binders tested against T1, human amylin 3(a) receptor (human …) (assay: cell-based or functional assay).
B1 was tested, and the “hAmylin-R funct. EC50 (pM), tested with HSA” value (shortened to “hAmylin-R funct. EC50 (pM)”) was 93 pM.
For B2, the “hAmylin-R funct. EC50 (pM)” value was 128 pM.
For B3, the “hAmylin-R funct. EC50 (pM)” value was 143 pM.
B4 was tested, and the “hAmylin-R funct. EC50 (pM)” value was 106 pM.
B5 was tested, and the “hAmylin-R funct. EC50 (pM)” value was 122 pM.
For B6, the “hAmylin-R funct. EC50 (pM)” value was 92 pM.
B7 was tested, and the “hAmylin-R funct. EC50 (pM)” value was 179 pM.
In the case of B8, the “hAmylin-R funct. EC50 (pM)” value is reported as 157 pM.

Each binder was assayed against T2, human calcitonin receptor on … (assay: cell-based or functional assay).
For B1, the “hCTR funct. EC50 (pM), tested with HSA” value was 73 pM.
In the case of B2, the “hCTR funct. EC50 (pM), tested with HSA” value is reported as 92 pM.
For B3, the “hCTR funct. EC50 (pM), tested with HSA” value was 108 pM.
For B4, the “hCTR funct. EC50 (pM), tested with HSA” value was 28 pM.
In the case of B5, the “hCTR funct. EC50 (pM), tested with HSA” value is reported as 53 pM.
For B6, the “hCTR funct. EC50 (pM), tested with HSA” value was 40 pM.
With B7 the “hCTR funct. EC50 (pM), tested with HSA” value was 22 pM.
With B8 the “hCTR funct. EC50 (pM), tested with HSA” value was 31 pM.
